B1: F1*; the commonest letter at each place (parent)
chain: GAGACCGCAACTGAAAAGTTGTTATCACTTGTCGTAAGACACTTTGGATGGGTTGAAGTTCTGCACGTAGAAGCAAAAGGC

Variants of: B1
Test: fraction ligated after 30 min (ligated reads / total reads); higher = more ligase activity
Conditions: with F1*sub RNA substrate (template-directed ligation), 42 °C
Method in brief: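 Templates from an oligo pool were PCR-amplified, transcribed with T7 and gel-purified to give the ribozyme variants. Ligated and unligated products were separated on gel, reverse transcribed using barcoded primers, and read on a MiSeq. A quality filter of ≥20 was applied to core bases. Fraction ligated was taken as ligated reads as a share of all reads per variant.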
In the case of C26G A37C, the fraction ligated is reported as 0.674. Variant C26G A37G has a fraction ligated of 0.762. With C40A T49G the fraction ligated was 0.674. Work on A24C T25G yielded a fraction ligated of 0.787. In the case of T23G C40A, the fraction ligated is reported as 0.873. In the case of C33A C40T, the fraction ligated is reported as 0.849. A27G was tested, and the fraction ligated was 0.852. C26A T32A gave a fraction ligated of 0.48. C42A G55T was tested, and the fraction ligated was 0.814. Work on G55T A56T A57T yielded a fraction ligated of 0.0137. In the case of T32C T43C, the fraction ligated is reported as 0.782. A24C A41T was tested, and the fraction ligated was 0.614. A24G G55T was tested, and the fraction ligated was 0.629. T25G G38T was tested, and the fraction ligated was 0.659. With A37C T43C the fraction ligated was 0.817. In the case of C33G A57C, the fraction ligated is reported as 0.847. Work on T30G A56T yielded a fraction ligated of 0.797. A56T was tested, and the fraction ligated was 0.803. Variant C33T G46A has a fraction ligated of 0.831. G31A A37T was tested, and the fraction ligated was 0.826. For T29C T45G, the fraction ligated was 0.239. In the case of C28G C42A, the fraction ligated is reported as 0.824. In the case of A27G A48T, the fraction ligated is reported as 0.195. Work on G55A A57C yielded a fraction ligated of 0.786. G31T T32G showed a fraction ligated of 0.826. Variant C28A A39C has a fraction ligated of 0.802. T32G A37T showed a fraction ligated of 0.825. Variant C40T T43A has a fraction ligated of 0.819. Variant T35G C40T has a fraction ligated of 0.851. For C42A G47C, the fraction ligated was 0.695. G46A G55A showed a fraction ligated of 0.786. For G46A G55T, the fraction ligated was 0.783. Variant C33A T45G has a fraction ligated of 0.0419. With G31A A48C the fraction ligated was 0.322. A24G C40A showed a fraction ligated of 0.731. For T23A T45A, the fraction ligated was 0.373. C26T T49A was tested, and the fraction ligated was 0.392. Variant C28A A57C has a fraction ligated of 0.776. C42T A48C gave a fraction ligated of 0.779. T49C A57G was tested, and the fraction ligated was 0.445. With G34T A37C the fraction ligated was 0.844. For C40A T45A, the fraction ligated was 0.66. In the case of T32C A48C, the fraction ligated is reported as 0.369. Variant A27T G38T has a fraction ligated of 0.799. Work on C33T C40A yielded a fraction ligated of 0.875. Work on G38T G50C yielded a fraction ligated of 0.134. For G34T A36T, the fraction ligated was 0.827. T35C C42A gave a fraction ligated of 0.841. For T32G C42T, the fraction ligated was 0.846. Variant A27G A39G has a fraction ligated of 0.799. T32C A39T was tested, and the fraction ligated was 0.778. A24G C42T was tested, and the fraction ligated was 0.802. For T30G G31C, the fraction ligated was 0.845. A36C T45C showed a fraction ligated of 0.753. Variant C26T C33T has a fraction ligated of 0.829. Work on G31C G50C yielded a fraction ligated of 0.0327. T35A A41T showed a fraction ligated of 0.831. Variant T23G A37C has a fraction ligated of 0.819. With T23G A37G the fraction ligated was 0.867. C26T T45A showed a fraction ligated of 0.779. Variant A27G A57T has a fraction ligated of 0.81. G55C A56C was tested, and the fraction ligated was 0.218. T30G T44A was tested, and the fraction ligated was 0.831. For T45G G46C, the fraction ligated was 0.0668. With T45G G46A the fraction ligated was 0.032. C28A T30G was tested, and the fraction ligated was 0.808. With T23C C42T the fraction ligated was 0.804. C28A T49G was tested, and the fraction ligated was 0.724. With G34C T35A the fraction ligated was 0.815. For T49A A57G, the fraction ligated was 0.792. Variant G31C G47T has a fraction ligated of 0.0589. With C26G C40G the fraction ligated was 0.793. C33T G34T was tested, and the fraction ligated was 0.853. T30G T32C C33G G38C A39G A41C showed a fraction ligated of 0.835. For A41C G50T, the fraction ligated was 0.597. T29G A48G was tested, and the fraction ligated was 0.805. With C26T A36T the fraction ligated was 0.827. With T32C C42G the fraction ligated was 0.806. With T32C C42T the fraction ligated was 0.842. Work on T32C C42A yielded a fraction ligated of 0.826. In the case of A24C T30A, the fraction ligated is reported as 0.414. In the case of G55A A56C A57C, the fraction ligated is reported as 0.0438. With C26G C42G the fraction ligated was 0.7. T44G A48C showed a fraction ligated of 0.757. T30A G50C showed a fraction ligated of 0.111. Work on G34C C42A yielded a fraction ligated of 0.852. In the case of T30C G34C, the fraction ligated is reported as 0.746. For T29C T32C, the fraction ligated was 0.764. In the case of A36C G38T, the fraction ligated is reported as 0.838. With A24T T35A the fraction ligated was 0.808. For A24T T35G, the fraction ligated was 0.772. In the case of T35G A41T, the fraction ligated is reported as 0.839. In the case of G38C T49A, the fraction ligated is reported as 0.233. In the case of A24G A37G, the fraction ligated is reported as 0.852. For T32A A57G, the fraction ligated was 0.859. T23C T43C showed a fraction ligated of 0.759. For A39T C42A, the fraction ligated was 0.846. A27C C42T gave a fraction ligated of 0.816. C42T T45C gave a fraction ligated of 0.79. With T35C C40G the fraction ligated was 0.817. Variant C26T T35G has a fraction ligated of 0.817. With T35G G46C the fraction ligated was 0.803. C28A C40A showed a fraction ligated of 0.809. In the case of G34T T45A, the fraction ligated is reported as 0.794. A36G C40G was tested, and the fraction ligated was 0.841. A39T A48G was tested, and the fraction ligated was 0.778. Work on T23A C26G yielded a fraction ligated of 0.116. C42G G50T showed a fraction ligated of 0.713. G34C A37T was tested, and the fraction ligated was 0.839. Variant G34C T45C has a fraction ligated of 0.733. T25C A27C showed a fraction ligated of 0.744. Variant T25C A27T has a fraction ligated of 0.774. T23G A39T was tested, and the fraction ligated was 0.79. For A24G A56C, the fraction ligated was 0.0669. T23A A57C gave a fraction ligated of 0.805. C40A A57C was tested, and the fraction ligated was 0.812. With T35C T44A the fraction ligated was 0.851. For C28T C40T, the fraction ligated was 0.796. In the case of G38C A57G, the fraction ligated is reported as 0.87. Variant G38C A57C has a fraction ligated of 0.824. Variant A24C C33G has a fraction ligated of 0.4. Work on A27G G38T yielded a fraction ligated of 0.824. With T35C A36G the fraction ligated was 0.847. With C33A A57C the fraction ligated was 0.834. Work on G31A G50A yielded a fraction ligated of 0.025. Variant G31C C42T has a fraction ligated of 0.786. Work on G31C C42A yielded a fraction ligated of 0.82. For A36T T45G, the fraction ligated was 0.385. For A36T T45A, the fraction ligated was 0.778. A37G T45C was tested, and the fraction ligated was 0.803. With T29A G34T the fraction ligated was 0.842. Variant G34C T44G has a fraction ligated of 0.84. T23A T25G showed a fraction ligated of 0.737. T44G G46T gave a fraction ligated of 0.805. G38A T45G gave a fraction ligated of 0.0379. In the case of G38A T43A, the fraction ligated is reported as 0.835. C42G G55A was tested, and the fraction ligated was 0.853. A27T G31C was tested, and the fraction ligated was 0.864. Variant A27T T49G has a fraction ligated of 0.287. G38T A57G gave a fraction ligated of 0.862. A56T A57G was tested, and the fraction ligated was 0.217. A36G A48T was tested, and the fraction ligated was 0.0834. Work on A27T T43A yielded a fraction ligated of 0.799. A27T T43G gave a fraction ligated of 0.784. T23G T32A showed a fraction ligated of 0.858. Variant T23G T32G has a fraction ligated of 0.842. For T45G G55C, the fraction ligated was 0.0194. Variant T30C T45C has a fraction ligated of 0.475. With A48T T49C the fraction ligated was 0.139. With G34C G50A the fraction ligated was 0.17. Work on T23A A41G yielded a fraction ligated of 0.765. Work on T23C T35A yielded a fraction ligated of 0.845. With G38C A56G the fraction ligated was 0.7. For A36G A41G, the fraction ligated was 0.788. With A36G A41T the fraction ligated was 0.834. T30C T35A gave a fraction ligated of 0.796. With C28G G34A the fraction ligated was 0.794. With A24T T30G the fraction ligated was 0.768. T30G G50A showed a fraction ligated of 0.513. In the case of G47A, the fraction ligated is reported as 0.788. Variant G34A A41G has a fraction ligated of 0.81. Variant C33G T49A has a fraction ligated of 0.596. For C33T T44C, the fraction ligated was 0.855. T44A T45G was tested, and the fraction ligated was 0.187. Variant T23A T44C has a fraction ligated of 0.784. A27C C28G gave a fraction ligated of 0.807. For A37T A39T, the fraction ligated was 0.831.

From the supplement of paper PMC6755084
